Each block holds one substance with its values, some of them ahead of it.
How the values were obtained:
[1] = biological target: TRPV6* (rat TRPV6 residues 1–668 with I62Y, L92N and M96Q; L495Q reverted to the native leucine) (rat) (UniProt Q9R186); assay: crystal structure; hanging drop, 20–24% PEG 350 MME, 50 mM NaCl, 50 mM Tris-HCl pH 8.0–8.5, 20 °C; also with 10 mM CaCl2 or 1 mM GdCl3; homotetramer
[2] = biological target: TRPV6* (rat TRPV6 residues 1–668 with I62Y, L92N and M96Q; L495Q reverted to the native leucine) (rat) (UniProt Q9R186); assay: SEC; FSEC traces of purified protein following tryptophan fluorescence; elution time corresponding to the tetrameric assembly
[3] = biological target: TRPV6*-del1 (TRPV6* with four residues, 477–480, deleted in the S4–S5 linker) (rat) (UniProt Q9R186); assay: as above
[4] = biological target: TRPV6*-del2 (TRPV6* with six residues, 475–480, deleted in the S4–S5 linker) (rat) (UniProt Q9R186); assay: as above
[5] = biological target: TRPV6*-del3 (TRPV6* with eight residues, 473–480, deleted in the S4–S5 linker) (rat) (UniProt Q9R186); assay: as above
[6] = biological target: TRPV6*-del4 (TRPV6* with ten residues, 471–480, deleted in the S4–S5 linker) (rat) (UniProt Q9R186); assay: as above
[7] = biological target: TRPV6_(cryst) (rat TRPV6 residues 1–668 with I62Y, L92N, M96Q and L495Q) (rat) (UniProt Q9R186); assay: crystal structure; hanging drop, 20–24% PEG 350 MME, 50 mM NaCl, 50 mM Tris-HCl pH 8.0–8.5, 20 °C; also with 10 mM CaCl2 or 1 mM GdCl3; homotetramer

Substance: TRPV6*-del2 (TRPV6* with six residues, 475–480, deleted in the S4–S5 linker) (from UniProt Q9R186 1-668)
stoichiometry N [4]: 4

Substance: TRPV6*-del3 (TRPV6* with eight residues, 473–480, deleted in the S4–S5 linker) (from UniProt Q9R186 1-668)
stoichiometry N [5]: 4

Substance: TRPV6*-del4 (TRPV6* with ten residues, 471–480, deleted in the S4–S5 linker) (from UniProt Q9R186 1-668)
stoichiometry N [6]: 4

Substance: TRPV6_(cryst) (rat TRPV6 residues 1–668 with I62Y, L92N, M96Q and L495Q) (from UniProt Q9R186 1-668)
stoichiometry N [7]: 4

The remaining lines, values ahead:

stoichiometry N [1]: 4 | stoichiometry N [2]: 4
Substance: TRPV6* (rat TRPV6 residues 1–668 with I62Y, L92N and M96Q; L495Q reverted to the native leucine) (from UniProt Q9R186 1-668)

stoichiometry N [3]: 4
Substance: TRPV6*-del1 (TRPV6* with four residues, 477–480, deleted in the S4–S5 linker) (from UniProt Q9R186 1-668)

From publication PMC5587609
